The values that follow come from article PMC10043188.

This assay deals with T1, His-tagged Arc, wild type, purified, Q9WV31.
T1 chain: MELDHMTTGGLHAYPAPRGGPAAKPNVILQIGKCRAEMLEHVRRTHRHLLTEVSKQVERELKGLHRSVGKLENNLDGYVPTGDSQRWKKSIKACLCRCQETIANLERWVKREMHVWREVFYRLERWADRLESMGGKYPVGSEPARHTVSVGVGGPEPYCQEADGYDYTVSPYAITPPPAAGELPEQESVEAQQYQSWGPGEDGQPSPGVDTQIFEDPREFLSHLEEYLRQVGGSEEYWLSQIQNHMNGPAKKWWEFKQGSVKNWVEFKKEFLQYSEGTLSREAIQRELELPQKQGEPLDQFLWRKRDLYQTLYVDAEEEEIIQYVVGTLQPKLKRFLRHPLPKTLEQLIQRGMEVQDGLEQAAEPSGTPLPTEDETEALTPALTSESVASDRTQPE
Kind of assay: SDS-PAGE under non-reducing conditions; purified His-Arc in SDS sample buffer without 2-mercaptoethanol, heated 5 min at 95°C; total protein stain and anti-Arc immunoblot. To be noted: remark: other sources report otherwise.

B1: His-tagged Arc, wild type, purified, Q9WV31 1-396 (natural protein)
chain: MELDHMTTGGLHAYPAPRGGPAAKPNVILQIGKCRAEMLEHVRRTHRHLLTEVSKQVERELKGLHRSVGKLENNLDGYVPTGDSQRWKKSIKACLCRCQETIANLERWVKREMHVWREVFYRLERWADRLESMGGKYPVGSEPARHTVSVGVGGPEPYCQEADGYDYTVSPYAITPPPAAGELPEQESVEAQQYQSWGPGEDGQPSPGVDTQIFEDPREFLSHLEEYLRQVGGSEEYWLSQIQNHMNGPAKKWWEFKQGSVKNWVEFKKEFLQYSEGTLSREAIQRELELPQKQGEPLDQFLWRKRDLYQTLYVDAEEEEIIQYVVGTLQPKLKRFLRHPLPKTLEQLIQRGMEVQDGLEQAAEPSGTPLPTEDETEALTPALTSESVASDRTQPE
B1: the stoichiometry N came to 2.
